Results on one variant are retold here after paper PMC5880107, “The Sequence-specific Peptide-binding Activity of the Protein Sulfide Isomerase AGR2 Directs Its Stable Binding to the Oncogenic Receptor EpCAM*^([image sbox.jpg])” (Molecular & Cellular Proteomics : MCP, 2018).

B1: His-AGR2 WT (mature AGR2, amino acids 21-175, N-terminal 6xHis tag; plasmid pmAGR2) [human] / His-EpEX-CO, extracellular domain of EpCAM (amino acids 24-265), N-terminal 6xHis tag [human] (parent)
chain 1: RDTTVKPGAKKDTKDSRPKLPQTLSRGWGDQLIWTQTYEEALYKSKTSSKPLMIIHHLDECPHSQALKKVFAENKEIQKLAEQFVLLNLVYETTDKHLSPDGQYVPRIMFVDPSLTVRADITGRYSNRLYAYEPADTALLLDNMKKALKLLKTEL
chain 2: QEECVCENYKLAVNCFVNNNRQCQCTSVGAQNTVICSKLAAKCLVMKAEMNGSKLGRRAKPEGALQNNDGLYDPDCDESGLFKAKQCNGTSMCWCVNTAGVRRTDKDTEITCSERVRTYWIIIELKHKAREKPYDSKSLRTALQKEITTRYQLDPKFITSILYENNVITIDLVQNSSQKTQNDVDIADVAYYFEKDVKGESLFHSKKMDLTVNGEQLDLDPGQTLIYYVDEKAPEFSMQGLK

Variants of B1 are the subject of one assay. Nature of the assay: ELISA (His-EpCAM solid phase; His-AGR2 mobile phase). The settings on record: with His-EpEX-CO, point at 0.5 μg AGR2 (highest dose of the titration), +DTT Blocking (DTT only in the blocking step, before AGR2 binding), read off a plot.
As to chain 1 S114A, the response worked out at 110 RLU.

Still in this assay, the particulars now being: with His-EpEX-CO, point at 0.5 μg AGR2 (highest dose of the titration), no DTT in the blocking step, read off a plot.
As for chain 1 S114A, the response stood at 160 RLU.
